The target of this assay is T1, human PD-1 Fc recombinant protein (Homo sapiens, UniProt Q15116).
T1 construct: Programmed Cell Death Protein-1 (PD-1), human, bought as an Fc fusion; Ran at about 63 kDa in the blot; Surmise: the commercial product holds the extracellular domain of PD-1 fused to a human IgG1 Fc; The ELISA methods say only 'recombinant human PD-1'; also called recombinant human PD-1; Programmed Cell Death Protein-1; source: bought: Peprotech, Catalog # 310-40-1 MG
Briefly: far-Western, overlay or dot blot; Western blot: PD-1 Fc (200 ng) separated on 12% SDS-PAGE (denatured), transferred to nitrocellulose, blocked with 5% milk in TBST, probed overnight at 4°C with 10 μg/mL purified nanobody, detected with anti-His tag HRP antibody. The note with it: both partners purified.

T1 sequence (Q15116 25-170): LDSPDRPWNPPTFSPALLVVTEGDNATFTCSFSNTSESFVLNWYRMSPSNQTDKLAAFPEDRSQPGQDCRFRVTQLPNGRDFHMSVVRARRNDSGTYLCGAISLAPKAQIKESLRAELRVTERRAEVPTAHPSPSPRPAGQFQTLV

B1: designed PD-1-specific nanobody (Cemiplimab CDRs grafted onto Caplacizumab framework regions) (VHH)
VHH: EVQLVESGGGLVQPGGSLRLSCAASGFTFSNFGMGWFRQAPGKGRELVAAISGGGRDTYYPDSVEGRFTISRDNAKRMVYLQMNSLRAEDTAVYYCVKWGNIYFDYWGQGTQVTVSS
notes: CDRs of the Cemiplimab heavy chain grafted onto the framework regions of Caplacizumab; 117 residues, 12.5 kDa without tag; Gene inserted into pET-28a (+) at NdeI and XhoI; with His tag about 13.5 kDa; Surmise: this cloning usually gives an N-terminal His6 tag with a thrombin site from the vector; also called NB; designed nanobody; source: E. coli BL21 (DE3), pET-28a (+), purified (Ni-NTA, …)
B1: the binding result is given as “binds”.

(Values after publication PMC11782559, “Innovative CDR grafting and computational methods for PD-1 specific nanobody design” (Frontiers in Bioinformatics, 2024).)
